Assay results: PMC2749821 (2009)
Values belong to the binder of their own block, whether it stands above or below them.

Columns and labels:
ACVR2B = biological target: T1, ACVR2B (Mus musculus (Mouse), UniProt P27040); assay: SPR 1:1 (ligand immobilised, monomeric ECD analyte)
T1 chain: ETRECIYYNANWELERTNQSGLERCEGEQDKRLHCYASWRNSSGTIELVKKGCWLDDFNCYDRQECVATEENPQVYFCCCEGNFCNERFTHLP

BMPR1B = biological target: T2, BMPR1B (Mus musculus (Mouse), UniProt P36898); assay: as above
T2 chain: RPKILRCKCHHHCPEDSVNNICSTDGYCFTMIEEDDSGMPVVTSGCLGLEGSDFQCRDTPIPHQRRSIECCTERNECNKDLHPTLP

Kd (ACVR2B): 2500 nM | Kd (BMPR1B): 750 nM
B1: BMP7 (protein)
chain 1: DQRQACKKHELYVSFRDLGWQDWIIAPEGYAAYYCEGECAFPLNSYMNATNHAIVQTLVHFINPETVPKPCCAPTQLNAISVLYFDDSSNVILKKYRNMVVRACGCH
chain 2: B1 chain 1

Kd (ACVR2B): 88 nM | Kd (BMPR1B): > 64000 nM
B2: ActivinA (protein)
chain 1: GLECDGKVNICCKKQFFVSFKDIGWNDWIIAPSGYHANYCEGECPSHIAGTSGSSLSFHSTVINHYRMRGHSPFANLKSCCVPTKLRPMSMLYYDDGQNIIKKDIQNMIVEECGCS
chain 2: B2 chain 1
